In PMC5854672, “Solution structure of extracellular loop of human β4 subunit of BK channel and its biological implication on ChTX sensitivity” (Scientific Reports, 2018):

Key:
[1] = target: mSlo1 channel (BKα subunit of mouse, alone) (mouse) (UniProt Q08460)
mSlo1/β4(N123A) channel [2] = target: T1, mSlo1/β4(N123A) channel (mouse | human, UniProt Q08460 1-1209; Q86W47 1-210, N123A); assay: cell-based or functional assay
mSlo1/β4(N123R) channel [3] = target: T2, mSlo1/β4(N123R) channel (mouse | human, UniProt Q08460 1-1209; Q86W47 1-210, N123R); assay: cell-based or functional assay
mSlo1/β4(N123K) channel [4] = target: T3, mSlo1/β4(N123K) channel (mouse | human, UniProt Q08460 1-1209; Q86W47 1-210, N123K); assay: cell-based or functional assay
mSlo1/β4(N123D) channel [5] = target: T4, mSlo1/β4(N123D) channel (mouse | human, UniProt Q08460 1-1209; Q86W47 1-210, N123D); assay: cell-based or functional assay
T4 sequence (Q08460 whole entry, stated change not applied, one chain of several): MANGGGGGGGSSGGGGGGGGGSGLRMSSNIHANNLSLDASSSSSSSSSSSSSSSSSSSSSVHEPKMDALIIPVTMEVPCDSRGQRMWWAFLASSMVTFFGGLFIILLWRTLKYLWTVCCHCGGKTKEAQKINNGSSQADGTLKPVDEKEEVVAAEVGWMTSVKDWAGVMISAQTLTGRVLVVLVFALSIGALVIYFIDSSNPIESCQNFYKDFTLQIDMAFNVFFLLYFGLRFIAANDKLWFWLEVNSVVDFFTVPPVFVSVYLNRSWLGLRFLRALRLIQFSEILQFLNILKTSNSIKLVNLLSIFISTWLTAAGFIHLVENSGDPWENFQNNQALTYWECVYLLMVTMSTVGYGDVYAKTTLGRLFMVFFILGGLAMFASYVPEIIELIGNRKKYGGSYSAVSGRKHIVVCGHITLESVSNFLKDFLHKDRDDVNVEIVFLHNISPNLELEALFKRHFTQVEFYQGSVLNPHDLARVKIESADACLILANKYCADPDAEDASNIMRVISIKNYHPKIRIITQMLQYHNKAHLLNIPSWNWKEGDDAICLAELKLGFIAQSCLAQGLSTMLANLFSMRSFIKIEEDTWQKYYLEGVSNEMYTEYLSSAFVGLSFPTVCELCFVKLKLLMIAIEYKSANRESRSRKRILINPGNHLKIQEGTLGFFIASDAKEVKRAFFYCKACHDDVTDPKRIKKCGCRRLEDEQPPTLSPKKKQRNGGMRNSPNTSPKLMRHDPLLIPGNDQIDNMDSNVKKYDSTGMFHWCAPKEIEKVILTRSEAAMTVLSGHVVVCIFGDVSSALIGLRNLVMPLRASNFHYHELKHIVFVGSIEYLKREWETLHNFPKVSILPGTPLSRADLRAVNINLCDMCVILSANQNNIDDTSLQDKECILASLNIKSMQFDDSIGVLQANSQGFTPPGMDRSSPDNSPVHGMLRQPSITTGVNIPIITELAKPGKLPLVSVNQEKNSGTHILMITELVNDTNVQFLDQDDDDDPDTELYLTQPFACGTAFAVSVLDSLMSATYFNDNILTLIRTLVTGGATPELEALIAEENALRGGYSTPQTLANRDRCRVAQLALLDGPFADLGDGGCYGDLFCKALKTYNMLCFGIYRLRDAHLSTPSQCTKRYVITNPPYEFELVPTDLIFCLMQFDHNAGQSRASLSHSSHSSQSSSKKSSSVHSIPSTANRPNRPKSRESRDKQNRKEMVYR

mSlo1/β4 channel [6] = target: T5, mSlo1/β4 channel (mouse | human, UniProt Q08460 1-1209; Q86W47 1-210); assay: cell-based or functional assay
T5 sequence (Q08460 whole entry, one chain of several): as the sequence (Q08460 whole entry, stated change not applied, one chain of several) above

mSlo1/β4(N123E) channel [7] = target: T6, mSlo1/β4(N123E) channel (mouse | human, UniProt Q08460 1-1209; Q86W47 1-210, N123E); assay: cell-based or functional assay
T6 sequence (Q08460 whole entry, stated change not applied, the tested form may be a part, one chain of several): as the sequence (Q08460 whole entry, stated change not applied, one chain of several) above

mSlo1/β4(N123A) channel [8] = target: T1, mSlo1/β4(N123A) channel; assay: patch-clamp electrophysiology (time course of current block); outside-out patches of transfected HEK293 cells perfused with 1 μM ChTX; steps to +100 mV, intracellular 10 μM Ca2+; τon and τoff fitted to a first order bimolecular reaction scheme; KD = [ChTX]/((τoff/τon) − 1); conditions: one partner purified
mSlo1/β4(N123R) channel [9] = target: T2, mSlo1/β4(N123R) channel; assay: as above; conditions: one partner purified
mSlo1/β4(N123Y) channel = target: T7, mSlo1/β4(N123Y) channel (mouse | human, UniProt Q08460 1-1209; Q86W47 1-210, N123Y); assay: as above; conditions: one partner purified
T7 construct: mSlo1, BK channel α subunit (KCNMA1) of mouse, full-length cDNA, GenBank HQ221747.1; human BK channel β4 subunit (KCNMB4), full-length cDNA, GenBank AF207992.1; source: HEK293, transiently co-transfected (pcDNA3.1(+)), in excised membrane patches; copies: 4 + 4

mSlo1/β4(H101Y) channel = target: T8, mSlo1/β4(H101Y) channel (mouse | human, UniProt Q08460 1-1209; Q86W47 1-210, H101Y); assay: as above; conditions: one partner purified
T8 construct: mSlo1, BK channel α subunit (KCNMA1) of mouse, full-length cDNA, GenBank HQ221747.1; human BK channel β4 subunit (KCNMB4), full-length cDNA, GenBank AF207992.1; source: HEK293, transiently co-transfected (pcDNA3.1(+)), in excised membrane patches; copies: 4 + 4

mSlo1/β4(N123K) channel [10] = target: T3, mSlo1/β4(N123K) channel; assay: as above; conditions: one partner purified
[11] = target: T9, mSlo1 channel (BKα subunit of mouse, alone) (mouse, UniProt Q08460 1-1209); assay: as above; conditions: one partner purified
T9 construct: mSlo1, BK channel α subunit (KCNMA1) of mouse, full-length cDNA, GenBank HQ221747.1; tetrameric Slo1; also called mSlo1 alone channel; source: HEK293, transiently transfected (pcDNA3.1(+)), in excised membrane patches
T9 sequence (Q08460 whole entry): as the sequence (Q08460 whole entry, stated change not applied, one chain of several) above

mSlo1/β4(N123D) channel [12] = target: T4, mSlo1/β4(N123D) channel; assay: as above; conditions: one partner purified
mSlo1/β4(N123F) channel = target: T10, mSlo1/β4(N123F) channel (mouse | human, UniProt Q08460 1-1209; Q86W47 1-210, N123F); assay: as above; conditions: one partner purified
T10 construct: mSlo1, BK channel α subunit (KCNMA1) of mouse, full-length cDNA, GenBank HQ221747.1; human BK channel β4 subunit (KCNMB4), full-length cDNA, GenBank AF207992.1; source: HEK293, transiently co-transfected (pcDNA3.1(+)), in excised membrane patches; copies: 4 + 4

mSlo1/β4(N123V) channel = target: T11, mSlo1/β4(N123V) channel (mouse | human, UniProt Q08460 1-1209; Q86W47 1-210, N123V); assay: as above; conditions: one partner purified
T11 construct: mSlo1, BK channel α subunit (KCNMA1) of mouse, full-length cDNA, GenBank HQ221747.1; human BK channel β4 subunit (KCNMB4), full-length cDNA, GenBank AF207992.1; source: HEK293, transiently co-transfected (pcDNA3.1(+)), in excised membrane patches; copies: 4 + 4

mSlo1/β4(N123I) channel = target: T12, mSlo1/β4(N123I) channel (mouse | human, UniProt Q08460 1-1209; Q86W47 1-210, N123I); assay: as above; conditions: one partner purified
T12 construct: mSlo1, BK channel α subunit (KCNMA1) of mouse, full-length cDNA, GenBank HQ221747.1; human BK channel β4 subunit (KCNMB4), full-length cDNA, GenBank AF207992.1; source: HEK293, transiently co-transfected (pcDNA3.1(+)), in excised membrane patches; copies: 4 + 4

mSlo1/β4 channel [13] = target: T5, mSlo1/β4 channel; assay: as above; conditions: one partner purified
mSlo1/β4(N123E) channel [14] = target: T6, mSlo1/β4(N123E) channel; assay: as above; conditions: one partner purified
mSlo1/β4(N123L) channel = target: T13, mSlo1/β4(N123L) channel (mouse | human, UniProt Q08460 1-1209; Q86W47 1-210, N123L); assay: as above; conditions: one partner purified
T13 construct: mSlo1, BK channel α subunit (KCNMA1) of mouse, full-length cDNA, GenBank HQ221747.1; human BK channel β4 subunit (KCNMB4), full-length cDNA, GenBank AF207992.1; source: HEK293, transiently co-transfected (pcDNA3.1(+)), in excised membrane patches; copies: 4 + 4

mSlo1 channel (BKα subunit of mouse, alone) (mouse), sequence (Q08460 whole entry): as the sequence (Q08460 whole entry, stated change not applied, one chain of several) above

B1: human β4 subunit of BK channel, full length (natural protein)
chain: MAKLRVAYEYTEAEDKSIRLGLFLIISGVVSLFIFGFCWLSPALQDLQATEANCTVLSVQQIGEVFECTFTCGADCRGTSQYPCVQVYVNNSESNSRALLHSDEHQLLTNPKCSYIPPCKRENQKNLESVMNWQQYWKDEIGSQPFTCYFNQHQRPDDVLLHRTHDEIVLLHCFLWPLVTFVVGVLIVVLTICAKSLAVKAEAMKKRKFS
- thermodynamic double-mutant cycle on V1/2 of G-V curves (inside-out patches, 10 μM Ca2+): mSlo1(E264A) against β4(N123A), ΔΔV [1]: -42.4 mV

B2: Charybdotoxin (peptide)
chain: QFTNVSCTTSKECWSVCQRLHNTSRGKCMNKKCRCYS
notes: charybdotoxin (ChTX), scorpion toxin; also called ChTX; source: bought: Sigma-Aldrich (Art. No. C7802)
- inhibition of channel currents by 1 μM ChTX (outside-out patches, HEK293) (mSlo1/β4(N123A) channel [2]): ~90%
- inhibition of channel currents by 1 μM ChTX (outside-out patches, HEK293) (mSlo1/β4(N123R) channel [3]): 36.4%
- inhibition of channel currents by 1 μM ChTX (outside-out patches, HEK293) (mSlo1/β4(N123K) channel [4]): 89.1%
- inhibition of channel currents by 1 μM ChTX (outside-out patches, HEK293) (mSlo1/β4(N123D) channel [5]): 46.9%
- inhibition of channel currents by 1 μM ChTX (outside-out patches, HEK293) (mSlo1/β4 channel [6]): 22.2%
- inhibition of channel currents by 1 μM ChTX (outside-out patches, HEK293) (mSlo1/β4(N123E) channel [7]): 96%
- Kd (mSlo1/β4(N123A) channel [8]): 96.8 nM
- τoff (mSlo1/β4(N123A) channel [8]): 816 s
- τon (block at 1 μM ChTX) (mSlo1/β4(N123A) channel [8]): 72 s
- Kd (mSlo1/β4(N123R) channel [9]): 329 nM
- τoff (mSlo1/β4(N123R) channel [9]): 85.3 s
- τon (block at 1 μM ChTX) (mSlo1/β4(N123R) channel [9]): 21.1 s
- Kd (mSlo1/β4(N123Y) channel): 291 nM
- τoff (mSlo1/β4(N123Y) channel): 26.2 s
- τon (block at 1 μM ChTX) (mSlo1/β4(N123Y) channel): 5.9 s
- Kd (mSlo1/β4(H101Y) channel): 325 nM
- τoff (mSlo1/β4(H101Y) channel): 32.6 s
- τon (block at 1 μM ChTX) (mSlo1/β4(H101Y) channel): 8 s
- Kd (mSlo1/β4(N123K) channel [10]): 44.3 nM
- τoff (mSlo1/β4(N123K) channel [10]): 314 s
- τon (block at 1 μM ChTX) (mSlo1/β4(N123K) channel [10]): 13.3 s
- Kd [11]: 193 nM
- τoff [11]: 21.6 s
- τon (block at 1 μM ChTX) [11]: 3.5 s
- Kd (mSlo1/β4(N123D) channel [12]): 72.6 nM
- τoff (mSlo1/β4(N123D) channel [12]): 624 s
- τon (block at 1 μM ChTX) (mSlo1/β4(N123D) channel [12]): 42.2 s
- Kd (mSlo1/β4(N123F) channel): 47.1 nM
- τoff (mSlo1/β4(N123F) channel): 670 s
- τon (block at 1 μM ChTX) (mSlo1/β4(N123F) channel): 30.1 s
- Kd (mSlo1/β4(N123V) channel): 61.8 nM
- τoff (mSlo1/β4(N123V) channel): 53.3 s
- τon (block at 1 μM ChTX) (mSlo1/β4(N123V) channel): 3.1 s
- Kd (mSlo1/β4(N123I) channel): 119 nM
- τoff (mSlo1/β4(N123I) channel): 38.5 s
- τon (block at 1 μM ChTX) (mSlo1/β4(N123I) channel): 4.1 s
- τon (block at 1 μM ChTX) (mSlo1/β4 channel [13]): 60.9 s
- Kd (mSlo1/β4(N123E) channel [14]): 80.8 nM
- τoff (mSlo1/β4(N123E) channel [14]): 138 s
- τon (block at 1 μM ChTX) (mSlo1/β4(N123E) channel [14]): 10.3 s
- Kd (mSlo1/β4(N123L) channel): 41.9 nM
- τoff (mSlo1/β4(N123L) channel): 171 s
- τon (block at 1 μM ChTX) (mSlo1/β4(N123L) channel): 6.9 s
